# Laboratory results taken from publication PMC1626108.
# Assays:
# [1] = target: T1, Recombinant Cox11, purified (mouse) (UniProt Q6P8I6)
# T1 sequence (Q6P8I6 whole entry, looked up): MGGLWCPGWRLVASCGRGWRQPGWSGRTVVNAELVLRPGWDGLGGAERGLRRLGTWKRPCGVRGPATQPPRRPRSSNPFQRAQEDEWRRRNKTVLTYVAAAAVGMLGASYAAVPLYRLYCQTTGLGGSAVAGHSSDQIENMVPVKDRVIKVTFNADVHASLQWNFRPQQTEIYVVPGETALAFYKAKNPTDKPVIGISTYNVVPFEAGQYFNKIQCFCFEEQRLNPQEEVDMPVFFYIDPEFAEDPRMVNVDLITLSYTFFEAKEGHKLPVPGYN
# Hexokinase type I (HKI) = Hexokinase type I (HKI) (UniProt P17710)
# UniProt P17710, sequence (P17710 other isoform, or with tags, fused parts or gaps): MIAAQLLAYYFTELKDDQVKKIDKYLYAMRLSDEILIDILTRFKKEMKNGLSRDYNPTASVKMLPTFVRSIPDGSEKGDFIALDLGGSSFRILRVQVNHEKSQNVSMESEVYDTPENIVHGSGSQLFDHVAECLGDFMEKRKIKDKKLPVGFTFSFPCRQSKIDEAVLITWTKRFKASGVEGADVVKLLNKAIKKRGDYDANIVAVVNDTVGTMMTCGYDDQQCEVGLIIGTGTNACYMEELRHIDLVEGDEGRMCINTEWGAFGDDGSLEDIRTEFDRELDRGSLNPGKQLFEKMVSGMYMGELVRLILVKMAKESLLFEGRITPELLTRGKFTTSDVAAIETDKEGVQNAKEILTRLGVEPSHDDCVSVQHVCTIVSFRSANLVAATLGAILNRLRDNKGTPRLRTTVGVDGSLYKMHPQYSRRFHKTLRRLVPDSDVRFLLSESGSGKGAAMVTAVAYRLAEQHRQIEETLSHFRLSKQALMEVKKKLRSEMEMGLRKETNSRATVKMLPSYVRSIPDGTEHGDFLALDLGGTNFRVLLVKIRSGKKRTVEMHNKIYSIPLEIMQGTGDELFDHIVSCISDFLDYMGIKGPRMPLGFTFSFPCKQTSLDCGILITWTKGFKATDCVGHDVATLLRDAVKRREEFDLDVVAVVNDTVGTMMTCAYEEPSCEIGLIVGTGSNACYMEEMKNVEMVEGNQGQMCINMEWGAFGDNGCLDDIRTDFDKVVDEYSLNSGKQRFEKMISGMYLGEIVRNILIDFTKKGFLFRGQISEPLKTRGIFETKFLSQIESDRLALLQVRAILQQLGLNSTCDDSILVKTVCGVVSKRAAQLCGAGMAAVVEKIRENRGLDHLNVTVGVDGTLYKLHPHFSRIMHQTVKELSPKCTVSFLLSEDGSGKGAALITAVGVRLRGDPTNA
Substance,reversal by increasing LD of the inhibition of HKI activity by 7.5 nM Cox11 at saturating glucose; half-maximal effect [1] [nM],"HKI enzymatic activity (initial rates versus glucose, 0.24 ug HKI) with 0.25, 7.5 and 15 nM Cox11; concentration of Cox11 at which no activity was recorded (Hexokinase type I (HKI)) [nM]"
"GST-LD, leucine-rich domain of RanBP2 fused to glutathione S-transferase (from UniProt P49792 62-711) (domain or fragment)",0.05,–
"Recombinant Cox11, purified (from UniProt Q6P8I6 75-275) (natural protein)",–,15
